This test concerns T-cells. Nature of the test: TL1A treatment of T-cells (IL12+IL18, TL1A+IL12+IL18, untreated): miR-155, INFG and IL22 expression. It is filed as cell-based. The text has this:
T-cells were divided into 3 treatment groups: cells treated with IL12+IL18, cells treated with TL1A+IL12+IL18, and untreated cells (ut), as depicted in FIG. 13A.

The mark [1] stands for this setting: TL1A+IL12+IL18 compared to no treatment or only IL12 and L18 treatment.
The mark [2] stands for this setting: treatment with TL1A (TL1A+IL12+IL18).

B1: TL1A: TNF Superfamily Member 15 (TL1A), cytokine encoded by TNFSF15, used to treat T-cells (protein)
chain: MAEDLGLSFGETASVEMLPEHGSCRPKARSSSARWALTCCLVLLPFLAGLTTYLLVSQLRAQGEACVQFQALKGQEFAPSHQQVYAPLRADGDKPRAHLTVVRQTPTQHFKNQFPALHWEHELGLAFTKNRMNYTNKFLLIPESGDYFIYSQVTFRGMTSECSEIRQAGRPNKPDSITVVITKVTDSYPEPTQLLMGTKSVCEVGSNWFQPIYLGAMFSLQEGDKLMVNVSDISLVDYTKEDKTFFGAFLL
On to B1, for which the miR-155 expression result (FIG. 13B) was “upregulation”. Moreover, under setting [1], the “miR-155 3p” value is recorded as “upregulation” and the “miR-155 5p” value is reported as “upregulation”. Moreover, under “cells treated with TL1A (TL1A+IL12+IL18)”, the “IL22 mRNA” value is reported as “increased”. For the same molecule, under setting [2], the INFG secretion result was “increase” and the “levels of INFG mRNA” value is reported as “increase”.

The values are drawn from patent publication US20230279491A1, “TREATMENTS FOR A SUB-POPULATION OF INFLAMMATORY BOWEL DISEASE PATIENTS” (CEDARS-SINAI MEDICAL CENTER, priority 2020, published 2023).
